For one protein, Km results are on record in PMC6317530.

Substrate in this series: O=C(O)c1cc(=O)[nH]c(=O)n1[C@@H]1O[C@H](COP(=O)(O)O)[C@@H](O)[C@H]1O
The experiment in a line: purified protein. Conditions: pH 7.1 (10 mM MOPS), 25 °C, I = 0.105 (NaCl).

B1: ScOMPDC (yeast orotidine 5′-monophosphate decarboxylase) (Saccharomyces cerevisiae S288C; A160S/C155S/N267D/Q215A/S154A/S2H/Y217F) (protein)
chain: MHKATYKERAATHPSPVAAKLFNIMHEKQTNLCASLDVRTTKELLELVEALGPKICLLKTHVDILTDFSMEGTVKPLKALSAKYNFLLFEDRKFADIGNTVKLQYSAGVYRIAEWADITNAHGVVGPGIVSGLKQAAEEVTKEPRGLLMLAELASKGSLSTGEYTKGTVDIAKSDKDFVIGFIAQRDMGGRDEGYDWLIMTPGVGLDDKGDALGAQFRTVDDVVSTGSDIIIVGRGLFAKGRDAKVEGERYRKAGWEAYLRRCGQQD
In general, Km refers to the concentration of substrate that gives half-maximal velocity. In the case of B1, the Km was found to be 1500 ± 50 µM.
